Substrate in this series: O=C(CO)CO
Format: biochemical, Chromobacterium violaceum. The conditions noted are these: DHA as varied substrate; PLP-dependent.

Broadly, the Km is the concentration of substrate that gives half-maximal velocity. As a reminder, the kcat is the maximal rate divided by the concentration of active sites. In general, kcat/Km refers to the turnover number divided by the Michaelis constant.

B1: Cv-ωTA (Chromobacterium violaceum ATCC 12472) (protein)
chain: MQKQRTTSQWRELDAAHHLHPFTDTASLNQAGARVMTRGEGVYLWDSEGNKIIDGMAGLWCVNVGYGRKDFAEAARRQMEELPFYNTFFKTTHPAVVELSSLLAEVTPAGFDRVFYTNSGSESVDTMIRMVRRYWDVQGKPEKKTLIGRWNGYHGSTIGGASLGGMKYMHEQGDLPIPGMAHIEQPWWYKHGKDMTPDEFGVVAARWLEEKILEIGADKVAAFVGEPIQGAGGVIVPPATYWPEIERICRKYDVLLVADEVICGFGRTGEWFGHQHFGFQPDLFTAAKGLSSGYLPIGAVFVGKRVAEGLIAGGDFNHGFTYSGHPVCAAVAHANVAALRDEGIVQRVKDDIGPYMQKRWRETFSRFEHVDDVRGVGMVQAFTLVKNKAKRELFPDFGEIGTLCRDIFFRNNLIMRACGDHIVSAPPLVMTRAEVDEMLAVAERCLEEFEQTLKARGLA
With B1, the Km is on record as 15.2 ± 0.11 mM, the kcat amounted to 1.61 ± 0.07 s⁻¹ and the kcat/Km is 100 M⁻¹ s⁻¹.

The record behind these values is paper PMC12666128, “Engineering ω-transaminase for efficient dihydroxyacetone transamination in serinol biosynthesis starting from methanol” (Synthetic and Systems Biotechnology, 2025).
